{
  "source": "the supplement of paper PMC11908140",
  "parents": {"B1": {"name": "library; numbered along this chain (parent)", "chain": "MRKPRAAVGSGHRKQAASQEGRQKHAKNNSQAKPSACDGLARQPEEVVLQASVSSYHLFRDVAEVTAFRGSLLSWYDQEKRDLPWRRRAEDEMDLDRRAYAVWVSEVMLQQTQVATVINYYTGWMQKWPTLQDLASASLEEVNQLWAGLGYYSRGRRLQEGARKVVEELGGHMPRTAETLQQLLPGVGRYTAGAIASIAFGQATGVVDGNVARVLCRVRAIGADPSSTLVSQQLWGLAQQLVDPARPGDFNQAAMELGATVCTPQRPLCSQCPVESLCRARQRVEQEQLLASGSLSGSPDVEECAPNTGQCHLCLPPSEPWDQTLGVVNFPRKASRKPPREESSATCVLEQPGALGAQILLVQRPNSGLLAGLWEFPSVTWEPSEQLQRKALLQELQRWAGPLPATHLRHLGEVVHTFSHIKLTYQVYGLALEGQTPVTTVPPGARWLTQEEFHTAAVSTAMKKVFRVYQGQQPGTCMGSKRSQVSSPCSRKKPRMGQQVLDNFFRSHISTDAHSLNSAAQ"}},
  "data": [
    {"variants_of": "B1", "test": "8OG:A repair function score (normalized; synonymous = 0, nonsense = -1) (normalized log-likelihood score); higher = more repair activity (WT-like)", "conditions": "with 8OG:A DNA repair reporter (GFP) in HEK-293 MUTYH KO cells", "outline": "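Lentiviral MUTYH cDNA NNN codon-scan libraries in HEK-293 MUTYH knockout cells (10 pg/ml doxycycline) were co-transfected with an 8OG:A GFP repair reporter plus mCherry. At 72 h, viable mCherry+ cells were sorted into GFP+ (repair) and GFP− bins, three replicates per tile, then tile amplicons were sequenced. Per-tile Rosace fitness scores became a normalized repair function score anchored on synonymous and nonsense distributions. Synonymous medians were set to 0 and nonsense to -1; variants under 300 counts per million at the start were removed.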", "values": [
      {"variant": "MRKPRAAVGSGHRKQAASQEGRQKHAKNNSQAKPSACDGLARQPEEVVLQASVSSYHLFRDVAEVTAFRGSLLSWYDQEKRDLPWRRRAEDEMDLDRRAYAVWVSEVMLQQTQVATVINYYTGWMQKWPTLQDLASASLEEVNQLWAGLGYYSRGRRLQEGARKVVEELGGHMPRTAETLQQLLPGVGRYTAGAIASIAFGQATGVVDGNVARVLCRVRAIGADPSSTLVSQQLWGLAQQLVDPARPGDFNQAAMELGATVCTPQRPLCSQCPVESLCRARQRVEQEQLLASGSLSGSPDVEECAPNTGQCHLCLPPSEPWDQTLGVVNFPRKASRKPPREESSATCVLEQPGALGAQILLVQRPNSGLLAGLWEFPSVTWEPSEQLQRKALLQELQRWAGPLPATHLRHLGEVVHTFSHIKLTYQVYFLALEGQTPVTTVPPGARWLTQEEFHTAAVSTAMKKVFRVYQGQQPGTCMGSKRSQVSSPCSRKKPRMGQQVLDNFFRSHISTDAHSLNSAAQ", "note": "[G429F]", "8OG:A repair function score": 0.209},
      {"variant": "MRKPRAAVGSGHRKQAASQEGRQKHAKNNSQAKPSACDGLARQPEEVVLQASVSSYHLFRDVAEVTAFRGSLLSWYDQEKRDLPWRRRAEDEMDLDRRAYAVWVSEVMLQQTQVATVINYYTGWMQKWPTLQDLASASLEEVNQLWAGLGYYSRGRRLQEGARKVVEELGGHMPRTAETLQQLLPGVGRYTAGAIASIAFGQATGVVDGNVARVLCRVRAIGADPSSTLVSQQLWGLAQQLVDPARPGDFNQAAMELGATVCTPQRPLCSQCPVESLCRARQRVEQEQLLASGSLSGSPDVEECAPNTGQCHLCLPPSEPWDQTLGVVNFPRKASRKPPREESSATCVLEQPGALGAQILLVQRPNSGLLAGLWEFPSVTWEPSEQLQRKALLQELQRWAGPLPATHLRHLGEVVHTFSHIKLTYQVYELALEGQTPVTTVPPGARWLTQEEFHTAAVSTAMKKVFRVYQGQQPGTCMGSKRSQVSSPCSRKKPRMGQQVLDNFFRSHISTDAHSLNSAAQ", "note": "[G429E]", "8OG:A repair function score": -0.296},
      {"variant": "MRKPRAAVGSGHRKQAASQEGRQKHAKNNSQAKPSACDGLARQPEEVVLQASVSSYHLFRDVAEVTAFRGSLLSWYDQEKRDLPWRRRAEDEMDLDRRAYAVWVSEVMLQQTQVATVINYYTGWMQKWPTLQDLASASLEEVNQLWAGLGYYSRGRRLQEGARKVVEELGGHMPRTAETLQQLLPGVGRYTAGAIASIAFGQATGVVDGNVARVLCRVRAIGADPSSTLVSQQLWGLAQQLVDPARPGDFNQAAMELGATVCTPQRPLCSQCPVESLCRARQRVEQEQLLASGSLSGSPDVEECAPNTGQCHLCLPPSEPWDQTLGVVNFPRKASRKPPREESSATCVLEQPGALGAQILLVQRPNSGLLAGLWEFPSVTWEPSEQLQRKALLQELQRWAGPLPATHLRHLGEVVHTFSHIKLTYQVYALALEGQTPVTTVPPGARWLTQEEFHTAAVSTAMKKVFRVYQGQQPGTCMGSKRSQVSSPCSRKKPRMGQQVLDNFFRSHISTDAHSLNSAAQ", "note": "[G429A]", "8OG:A repair function score": 0.031},
      {"variant": "MRKPRAAVGSGHRKQAASQEGRQKHAKNNSQAKPSACDGLARQPEEVVLQASVSSYHLFRDVAEVTAFRGSLLSWYDQEKRDLPWRRRAEDEMDLDRRAYAVWVSEVMLQQTQVATVINYYTGWMQKWPTLQDLASASLEEVNQLWAGLGYYSRGRRLQEGARKVVEELGGHMPRTAETLQQLLPGVGRYTAGAIASIAFGQATGVVDGNVARVLCRVRAIGADPSSTLVSQQLWGLAQQLVDPARPGDFNQAAMELGATVCTPQRPLCSQCPVESLCRARQRVEQEQLLASGSLSGSPDVEECAPNTGQCHLCLPPSEPWDQTLGVVNFPRKASRKPPREESSATCVLEQPGALGAQILLVQRPNSGLLAGLWEFPSVTWEPSEQLQRKALLQELQRWAGPLPATHLRHLGEVVHTFSHIKLTYQVYDLALEGQTPVTTVPPGARWLTQEEFHTAAVSTAMKKVFRVYQGQQPGTCMGSKRSQVSSPCSRKKPRMGQQVLDNFFRSHISTDAHSLNSAAQ", "note": "[G429D]", "8OG:A repair function score": -0.382},
      {"variant": "MRKPRAAVGSGHRKQAASQEGRQKHAKNNSQAKPSACDGLARQPEEVVLQASVSSYHLFRDVAEVTAFRGSLLSWYDQEKRDLPWRRRAEDEMDLDRRAYAVWVSEVMLQQTQVATVINYYTGWMQKWPTLQDLASASLEEVNQLWAGLGYYSRGRRLQEGARKVVEELGGHMPRTAETLQQLLPGVGRYTAGAIASIAFGQATGVVDGNVARVLCRVRAIGADPSSTLVSQQLWGLAQQLVDPARPGDFNQAAMELGATVCTPQRPLCSQCPVESLCRARQRVEQEQLLASGSLSGSPDVEECAPNTGQCHLCLPPSEPWDQTLGVVNFPRKASRKPPREESSATCVLEQPGALGAQILLVQRPNSGLLAGLWEFPSVTWEPSEQLQRKALLQELQRWAGPLPATHLRHLGEVVHTFSHIKLTYQVYCLALEGQTPVTTVPPGARWLTQEEFHTAAVSTAMKKVFRVYQGQQPGTCMGSKRSQVSSPCSRKKPRMGQQVLDNFFRSHISTDAHSLNSAAQ", "note": "[G429C]", "8OG:A repair function score": 0.227},
      {"variant": "MRKPRAAVGSGHRKQAASQEGRQKHAKNNSQAKPSACDGLARQPEEVVLQASVSSYHLFRDVAEVTAFRGSLLSWYDQEKRDLPWRRRAEDEMDLDRRAYAVWVSEVMLQQTQVATVINYYTGWMQKWPTLQDLASASLEEVNQLWAGLGYYSRGRRLQEGARKVVEELGGHMPRTAETLQQLLPGVGRYTAGAIASIAFGQATGVVDGNVARVLCRVRAIGADPSSTLVSQQLWGLAQQLVDPARPGDFNQAAMELGATVCTPQRPLCSQCPVESLCRARQRVEQEQLLASGSLSGSPDVEECAPNTGQCHLCLPPSEPWDQTLGVVNFPRKASRKPPREESSATCVLEQPGALGAQILLVQRPNSGLLAGLWEFPSVTWEPSEQLQRKALLQELQRWAGPLPATHLRHLGEVVHTFSHIKLTYQVWGLALEGQTPVTTVPPGARWLTQEEFHTAAVSTAMKKVFRVYQGQQPGTCMGSKRSQVSSPCSRKKPRMGQQVLDNFFRSHISTDAHSLNSAAQ", "note": "[Y428W]", "8OG:A repair function score": 0.228}
    ]}
  ]
}
